1 molecule from patent US20230218656, “POLYPEPTIDES […] AGAINST VIRAL INFECTION AND USES […]” (QUADRUMIX BIOTECHNOLOGY INC., published 2023) can be followed below.

In this data set the target is sdAb1 (NB07) (Artificial sequence). Kind of data set: MST; negative control; p86 says only weak interaction in phage ELISA (FIG. 4). Conditions: G4. (ELISA stands for enzyme-linked immunosorbent assay.)
Sequence of sdAb1 (NB07) (Artificial sequence) (chain, as listed by the source): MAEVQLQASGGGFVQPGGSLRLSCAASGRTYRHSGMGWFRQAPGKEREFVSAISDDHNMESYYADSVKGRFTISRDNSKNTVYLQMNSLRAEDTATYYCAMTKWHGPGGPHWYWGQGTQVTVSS

CTGGGAGGAGCTGGGGGAGGAGA (structured_DNA) [HBV pre-core promoter G-quadruplex (WT)]: the binding result was “no binding”.
